The results in this text go back to paper PMC8431534.

The assay concerns the target Myc-tagged PTK7 (Xenopus protein tyrosine kinase 7, full length) (Xenopus). Kind of assay: co-IP; HEK293 cells co-transfected with Myc-tagged PTK7 and GFP-tagged constructs; immunoprecipitation with anti-Myc, Dynabeads Protein G, Western blot (Figure 5B).

Take “ΔkPTK7-GFP (Xenopus Ptk7 with the kinase domain deleted, GFP-tagged) (receptor)”: the quantity co-precipitated with full-length PTK7 in respect to input, densitometry, relative to PTK7 = 1 (relative to PTK7 = 1) worked out at 2.6.
